Source: patent publication US20090232830A1

Experiments:
Assay in all cases: cell-based or functional assay
[1] = molecular target: R2 envelope protein (HIV-1)
[2] = molecular target: NYU1423 envelope protein (HIV-1)
[3] = molecular target: VI1249 envelope protein (HIV-1)
[4] = molecular target: 14/00/4 envelope protein (HIV-1)
[5] = molecular target: 24/00/4 envelope protein (HIV-1)
[6] = molecular target: VI1793 envelope protein (HIV-1)
[7] = molecular target: MACS#4 envelope protein (HIV-1)
[8] = molecular target: CA1 envelope protein (HIV-1)
[9] = molecular target: LY109 envelope protein (HIV-1)
[10] = molecular target: 24/008 envelope protein (HIV-1)
[11] = molecular target: VI1273 envelope protein (HIV-1)
[12] = molecular target: 93BR029 envelope protein (HIV-1)
[13] = molecular target: GXE-14 envelope protein (HIV-1)
[14] = molecular target: VI843 envelope protein (HIV-1)
[15] = molecular target: VI423 envelope protein (HIV-1)
[16] = molecular target: VI1399 envelope protein (HIV-1)
[17] = molecular target: 14/00/4 (A662) mutant Env (HIV-1)
[18] = molecular target: LY109(N662T) mutant Env (HIV-1)
[19] = molecular target: NYU1026 (T662) mutant Env (HIV-1)
[20] = molecular target: NYU1026 envelope protein (HIV-1)
[21] = molecular target: NYU1423 (T662) mutant Env (HIV-1)

Substance | neutralization, 50% inhibitory concentration [1] | neutralization, 50% inhibitory concentration [2] | neutralization, 50% inhibitory concentration [3] | neutralization, 50% inhibitory concentration [4] | neutralization, 50% inhibitory concentration [5] | neutralization, 50% inhibitory concentration [6] | neutralization, 50% inhibitory concentration [7] | neutralization, 50% inhibitory concentration [8] | neutralization, 50% inhibitory concentration [9] | neutralization, 50% inhibitory concentration [10] | neutralization, 50% inhibitory concentration [11] | neutralization, 50% inhibitory concentration [12] | neutralization, 50% inhibitory concentration [13] | neutralization, 50% inhibitory concentration [14] | neutralization, 50% inhibitory concentration [15] | neutralization, 50% inhibitory concentration [16] | other results
huMab IgG1 b12 (antibody) | 25 µg/mL | > 100 µg/mL | 1.56 µg/mL | > 100 µg/mL | > 100 µg/mL | > 100 µg/mL | 1.56 µg/mL | > 100 µg/mL | 100 µg/mL | > 100 µg/mL | 9.38 µg/mL | > 100 µg/mL | 25 µg/mL | 50 µg/mL | 31.2 µg/mL | 0.78 µg/mL | –
Mab 4E10 (antibody) | 3.13 µg/mL | 25 µg/mL | 0.98 µg/mL | 1.96 µg/mL | 3.91 µg/mL | 3.13 µg/mL | 7.82 µg/mL | 12.5 µg/mL | 18.8 µg/mL | 25 µg/mL | 6.25 µg/mL | 0.39 µg/mL | 13.3 µg/mL | 12.5 µg/mL | 6.25 µg/mL | 3.13 µg/mL | neutralization ID50 [17]: 9.34 µg/mL; Mab ID50 (neutralization) [2]: 25 µg/mL; neutralization ID50 [4]: 0.9 µg/mL; Mab ID50 (neutralization) [18]: 0.78 µg/mL; neutralization ID50 [19]: 0.78 µg/mL; Mab ID50 (neutralization) [9]: 12.5 µg/mL; neutralization ID50 [20]: 10.4 µg/mL; Mab ID50 (neutralization) [21]: 12.5 µg/mL
two-domain soluble CD4 (from UniProt P01730 26-208) (receptor) | 0.78 µg/mL | 25 µg/mL | 3.13 µg/mL | 0.59 µg/mL | > 50 µg/mL | 25 µg/mL | 1.56 µg/mL | < 0.39 µg/mL | > 25 µg/mL | 4.69 µg/mL | > 50 µg/mL | < 0.39 µg/mL | 9.34 µg/mL | > 50 µg/mL | 50 µg/mL | 6.25 µg/mL | –
Z13 (antibody) | > 25 µg/mL | – | > 25 µg/mL | > 25 µg/mL | > 25 µg/mL | > 25 µg/mL | > 25 µg/mL | > 25 µg/mL | > 25 µg/mL | > 25 µg/mL | > 25 µg/mL | > 25 µg/mL | > 25 µg/mL | > 25 µg/mL | > 25 µg/mL | > 25 µg/mL | –
X5 (antibody) | < 6.25 µg/mL | 25 µg/mL | 25 µg/mL | > 25 µg/mL | > 25 µg/mL | > 25 µg/mL | 25 µg/mL | > 25 µg/mL | > 25 µg/mL | > 25 µg/mL | > 25 µg/mL | < 25 µg/mL | > 25 µg/mL | > 25 µg/mL | < 6.25 µg/mL | < 25 µg/mL | –
2G12 (antibody) | > 50 µg/mL | 25 µg/mL | > 50 µg/mL | > 50 µg/mL | > 50 µg/mL | 6.25 µg/mL | 4.69 µg/mL | > 50 µg/mL | > 25 µg/mL | 0.78 µg/mL | 9.38 µg/mL | 18.8 µg/mL | > 50 µg/mL | 6.25 µg/mL | 25 µg/mL | 50 µg/mL | –
Mab 2F5 (antibody) | 0.78 µg/mL | 25 µg/mL | 0.98 µg/mL | < 0.39 µg/mL | 1.17 µg/mL | 1.17 µg/mL | 3.13 µg/mL | > 12.5 µg/mL | 6.64 µg/mL | > 50 µg/mL | 3.13 µg/mL | 0.39 µg/mL | 3.13 µg/mL | > 50 µg/mL | 1.96 µg/mL | 1.56 µg/mL | neutralization ID50 [17]: 6.25 µg/mL; Mab ID50 (neutralization) [2]: 25 µg/mL; neutralization ID50 [2]: 17.7 µg/mL; neutralization ID50 [4]: 0.45 µg/mL; Mab ID50 (neutralization) [18]: 0.39 µg/mL; neutralization ID50 [19]: 0.31 µg/mL; Mab ID50 (neutralization) [9]: 3.1 µg/mL; neutralization ID50 [20]: 3.13 µg/mL; Mab ID50 (neutralization) [21]: 12.5 µg/mL; neutralization ID50 [21]: 10.4 µg/mL
